The text below walks through data of patent publication US6753317.

Experiment [1] deals with µ-opioid receptor (rat brain synaptosomal preparation) (rat) (UniProt P33535). As to the kind of experiment: radioligand competition vs [^3H]DAGO, rat brain synaptosomes.
Experiment [2] deals with δ-opioid receptor (rat brain synaptosomal preparation) (rat) (UniProt P33533). In words: radioligand competition vs [^3H]DPDPE, rat brain synaptosomes.
Experiment [3] shares this target. In words: radioligand competition vs [^3H]N,N(CH3)2-Dmt-Tic-OH, rat brain synaptosomes.
In experiment [4] the target is δ-opioid receptor of the mouse vas deferens (MVD) (mouse) (UniProt P32300). As to the kind of experiment: cell-based or functional assay.

pKi: −log10 of the molar value. Non-standard residues stand in square brackets, D forms with d. *: point of attachment. Dmt = Cc1cc(O)cc(C)c1C[C@H](N)C(=O)O; Tic = O=C(O)[C@@H]1Cc2ccccc2CN1; NHNH2 = NN*

Chain of δ-opioid receptor (rat brain synaptosomal preparation) (rat) (P33533 whole entry, stated change not applied): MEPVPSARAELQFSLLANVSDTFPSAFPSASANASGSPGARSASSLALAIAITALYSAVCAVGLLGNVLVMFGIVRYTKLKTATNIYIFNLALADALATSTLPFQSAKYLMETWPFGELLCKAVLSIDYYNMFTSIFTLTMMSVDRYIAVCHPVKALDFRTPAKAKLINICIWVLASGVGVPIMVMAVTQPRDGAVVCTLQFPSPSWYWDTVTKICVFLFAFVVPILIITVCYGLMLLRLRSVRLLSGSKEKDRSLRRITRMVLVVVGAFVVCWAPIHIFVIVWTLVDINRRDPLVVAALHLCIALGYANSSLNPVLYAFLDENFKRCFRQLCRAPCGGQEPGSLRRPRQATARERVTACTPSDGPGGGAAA
Chain of µ-opioid receptor (rat brain synaptosomal preparation) (rat) (P33535 whole entry): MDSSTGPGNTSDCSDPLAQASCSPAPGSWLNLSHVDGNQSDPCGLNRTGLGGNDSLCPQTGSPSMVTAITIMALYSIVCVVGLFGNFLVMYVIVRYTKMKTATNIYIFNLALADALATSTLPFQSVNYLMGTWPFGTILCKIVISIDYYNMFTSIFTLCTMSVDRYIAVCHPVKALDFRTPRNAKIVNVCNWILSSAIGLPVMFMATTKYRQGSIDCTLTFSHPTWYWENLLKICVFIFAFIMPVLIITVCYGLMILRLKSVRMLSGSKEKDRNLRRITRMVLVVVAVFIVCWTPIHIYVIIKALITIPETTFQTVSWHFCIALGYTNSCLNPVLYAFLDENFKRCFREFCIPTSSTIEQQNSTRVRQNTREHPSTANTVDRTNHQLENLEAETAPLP
Chain of δ-opioid receptor of the mouse vas deferens (MVD) (mouse) (P32300 whole entry, stated change not applied): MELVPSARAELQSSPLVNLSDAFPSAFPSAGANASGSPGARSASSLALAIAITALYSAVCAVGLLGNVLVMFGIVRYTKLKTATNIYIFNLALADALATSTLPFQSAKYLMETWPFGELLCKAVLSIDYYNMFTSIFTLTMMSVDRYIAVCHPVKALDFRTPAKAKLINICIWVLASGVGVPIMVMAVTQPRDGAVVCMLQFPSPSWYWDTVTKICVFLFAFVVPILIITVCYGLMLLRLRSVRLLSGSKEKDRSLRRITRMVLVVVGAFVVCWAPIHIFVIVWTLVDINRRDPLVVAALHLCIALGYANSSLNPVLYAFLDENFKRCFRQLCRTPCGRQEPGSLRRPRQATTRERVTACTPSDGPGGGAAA

In experiment [1], H-[Dmt]-[Tic]-OH gave a pKi of 5.48.
Consider H-Dmt-D-Tic-NH-1-adamantane (peptide), for which the pKi is 9.59 in experiment [1], 7.61 in experiment [2] and 7.15 in experiment [3].
Turning to H-Dmt-Tic-Ala-OH (peptide), the pKi in experiment [1] was 6.09; in experiment [2] it was 9.54; in experiment [3] it was 9.54.
H-[Dmt]-[Tic]-NHMe: the results for the pKi in experiment [1], in experiment [2] and in experiment [3] were 7.07, 9.33 and 8.91, respectively.
In the same order, the values of H-αDmt-Tic-OH (peptide) are 5.76, 7.95 and 6.32.
For the substance N,N(Me)2-Dmt-Tic-NHMe (peptide), the values for the pKi in experiment [1], in experiment [2] and in experiment [3] were 6.44, 9.27 and 9.55, respectively.
As to H-Dmt-Tic-NH-tetrazole-5-yl (peptide), the negative logarithm of the Ki (pKi) in experiment [1] was 7.43; in experiment [2], 9.15; in experiment [3], 8.01.
With “[des-NH2-α-piperidine-1-yl]-Dmt-Tic-OH (peptide)”, the pKi is 5.69 in experiment [1], 8.93 in experiment [2] and 9.13 in experiment [3].
On to H-Dmt-Tic-Ala-NH-1-adamantane (peptide), for which the pKi is 8.60 in experiment [1], 10.14 in experiment [2] and 10.40 in experiment [3].
H-Dmt-Tic-Ala-OMe (peptide): the values for the pKi in experiment [1], in experiment [2] and in experiment [3] were 7.95, 9.64 and 9.85, respectively.
Turning to N,N(Me)2-Dmt-Tic-OH (peptide), the values for the pKi in experiment [1], in experiment [2] and in experiment [3] were 5.61, 9.92 and 10.15, respectively.
Consider H-[Dmt]-[Tic]-NH2, for which the figures for the pKi in experiment [2] and in experiment [3] were 8.91 and 8.67, respectively.
Take “[des-NH2-α-pyrrole-1-yl]-Dmt-Tic-OH (peptide)”: the pKi was 5.25 in experiment [1], 7.78 in experiment [2] and 8.00 in experiment [3].
N,N(Et)2-DMT-Tic-OH (peptide) gave a pKi in experiment [2] of 9.04.
On to “N,N(Me)2-Dmt-Tic-NH-1-adamantane (peptide)”, for which the pKi in experiment [1] is 8.95; in experiment [2] it was 9.80; in experiment [3], 9.92. In addition, the fold rise of µ affinity relative to N,N(Me)2-Dmt-Tic-OH in experiment [1] was 2200 fold.
In the case of “[des-NH2-α-pyrrolidine-1-yl]-Dmt-Tic-OH (peptide)”, the pKi in experiment [1] was 6.09; in experiment [2] it was 8.79; in experiment [3], 8.85.
On to H-Dmt-Tic-Ala-NHMe (peptide), for which the pKi in experiment [1] was 8.24; in experiment [2], 10.24; in experiment [3], 9.92.
Turning to H-[Dmt]-[Tic]-OMe, the values for the pKi in experiment [1], in experiment [2] and in experiment [3] were 6.37, 8.02 and 6.30, respectively.
For H-Dmt-Tic-Ala-NH-tBu (peptide), in that order: 8.39, 10.18 and 10.10.
On to H-[Dmt]-[Tic]-NHNH2, for which the pKi was 7.07 in experiment [1], 9.00 in experiment [2] and 7.38 in experiment [3].
On to H-Dmt-βTic-OH (peptide), for which the pKi in experiment [1] was 6.38; in experiment [2] it was 9.07; in experiment [3], 9.15.
On to H-Dmt-Tic-NH-1-adamantane (peptide), for which the values for the pKi in experiment [1], in experiment [2] and in experiment [3] were 9.12, 9.59 and 9.00, respectively.
In turn, cyclo (DMT-Tic) (peptide) registered an MVD pA2 in experiment [4] of 5.43. The pKi in experiment [2] is 8.02.
As to H-(R,S)Dmt-Tic-OH (peptide), the pKi in experiment [1] was 5.94; in experiment [2] it was 9.34; in experiment [3], 9.10.
As for H-Dmt-Tic-Ala-NH2 (peptide), the pKi is 7.33 in experiment [1], 9.62 in experiment [2] and 9.16 in experiment [3].
In the case of N,N(Me)2-Dmt-Tic-NH-tBu (peptide), the values for the pKi in experiment [1], in experiment [2] and in experiment [3] were 6.65, 9.21 and 9.96, respectively.
Consider “N,N(Me)2-Dmt-D-Tic-NH-1-adamantane (peptide)”, for which the pKi in experiment [1] was 7.30; in experiment [2], 6.85; in experiment [3], 6.92.
For H-Dmt-Tic-NH-tBu (peptide), the pKi in experiment [1] is 8.22; in experiment [2], 9.37; in experiment [3], 9.03.
